One molecule from patent publication CN111662379A can be followed below.

Assay [1] deals with T1, 重组SARS-CoV-2刺突蛋白胞外区 (extra cellular domain of spike protein, S-ECD) (SARS-CoV-2), P0DTC2. The assay can be described thus: SPR, Biacore 8K, S-ECD immobilised on a CM5 chip, antibody injected at 125nM~7.8nM. To be noted: remark: other sources report otherwise.
The target of assay [2] is T1, 重组SARS-CoV-2刺突蛋白胞外区 (extra cellular …). The experiment in a line: indirect ELISA, S-ECD coated at 1μg/ml. To be noted: remark: other sources report otherwise. A general note: ELISA stands for enzyme-linked immunosorbent assay.

B1: FC05 (antibody)
chain 1: EVQLLEQSGAEVKKPGASVRVSCKVSGYTLPEVAMHWVRQAPGKGLEWMGGFDPEDGETIYAQKFQGRVTMTEDTSTDTAYMELSSLRSEDTAVYYCATTTPFSSSFWFDPWGQGTLVTVSS
chain 2: QSVLTQAPSVSGAPGQKVTISCSGSSSNIGNNYVSWYQQLPGTAPKLLIYDNNKRPSGIPDRFSGSKSGTSATLGITGLQTGDEADYYCGTWDSSLSAVVFGGGTKLTVL
The Kd is the equilibrium constant for the complex coming apart. A lower Kd goes with tighter binding. The molecule B1 gave a dissociation constant Kd in assay [1] of 0.1 nM. The same molecule had a 抗体滴度 (dilution 1:x from 1mg/mL) in assay [2] of 320000.
